Laboratory results from US20230107644A1 (UNIVERSITY OF ROCHESTER, published 2023).
Residue numbers refer to the chain shown, from its start.

B1: 1086G8 hmAb (antibody, V domains shown)
VH: EVQLLESGGGLVQPGGSLRLSCTASGFTFASDAMNWVRQAPGKGLEWVSAISGNGGITYFADSVKGRFTISRDNSKDTLYLQMDSLRAEDTAVYYCAKGVAPSHFNLLTGYYAGHYYFDFWGQGTLVTVSS
VL: EIVMTQSPATLSVSPGERATLSCRASQSVRHNLAWYQHKPGQPPRLLIYGASTRAASVPARFSGSGSGTDFTLTISSLQSEDFAVYYCQQYNHWPPYTFGQGTKLEIK
B2: 1122A11 hmAb (antibody, V domains shown)
VH: QVQLVQSGAEVSKPGASVKVSCKASGYSFTSQSLGWVRQAPGQGLEWMGIINPSGGITNYAHKFQGRVTMTRDTSTSTVYMELSSLRSEDTALYYCVRDLSHYNEVGHDRAYYYGMDIWGQGTTVTVSS
VL: SYELIQPPSVSVSPGQTASITCSGDKLGKKYTCWYQQKPGQSPVLVIYQDNKRPSGIPERFSGSNSGNTATLTISGTQAMDEADYYCQAWDSSAVVFGGGTKLTVL
B3: 1092C4 hmAb (antibody, V domains shown)
VH: EVQLVQSGAEVKKPGASVKVSCKASGYSFTRYGISWVRQAPGQGLEWMGWISAYTGNTDYAQKFQGRITMTTDTSTSTAYMELRSLRSDDTAVYYCARDLPQGVVILGSYYYGMDVWGQGNTVTVSS
VL: EIVLTQSPGTLSLSPGERATLSCRASQSVTSRYLAWYQQKLGQAPRLLIYGASSRATGIPDRFSGSGSGTDFTLTISSLEPEDLAVYYCQQSGSPRTFGQGTKVEIK
B4: 1092E4 hmAb (antibody, V domains shown)
VH: B3 VH with E1Q, A79V, L100H
VL: B3 VL with L84F

How the values were obtained:
Assay in all cases: cell-based or functional assay
[1] = target: HA (H3) of influenza virus A/Wyoming/3/2003 (influenza A virus A/Wyoming/3/2003 …)
[2] = target: NA (N2) of influenza virus A/Victoria/210/2009 (influenza A virus A/Victoria/210/2009 …)
[3] = target: NA (N2) of influenza virus A/Switzerland/9715283/2013 (influenza A virus …)
[4] = target: NA (N2) of influenza virus A/Wyoming/3/2003 (influenza A virus A/Wyoming/3/2003 …)

| Binder | NT50 [1] [µg/mL] | NT50 [2] [µg/mL] | NT50 [3] [µg/mL] | NT50 [4] [µg/mL] |
| --- | --- | --- | --- | --- |
| B1 | 0.78 | – | – | – |
| B2 | – | 25 | 25 | 6.25 |
| B3 | 1.6 | – | – | – |
| B4 | 3.13 | – | – | – |
